Results on one substance are retold here after patent publication US20240294646A1.

In assay [1] the target is FcγRIIb, soluble extracellular domain (UniProt P31994). Nature of the assay: SPR; IIb-Fold/IIaR-Fold relative to control v27294.
For assay [2] the target is unchanged. In words: SPR; fold change in FcγRIIb affinity over WT v16463. (In general: Surface plasmon resonance follows binding to a sensor surface in real time, without labels.)
In assay [3] the target is FcγRIIaR, soluble extracellular domain (UniProt P12318). Nature of the assay: SPR; fold change in FcγRIIaR affinity over WT v16463.
Chain of FcγRIIaR, soluble extracellular domain (P12318 34-217): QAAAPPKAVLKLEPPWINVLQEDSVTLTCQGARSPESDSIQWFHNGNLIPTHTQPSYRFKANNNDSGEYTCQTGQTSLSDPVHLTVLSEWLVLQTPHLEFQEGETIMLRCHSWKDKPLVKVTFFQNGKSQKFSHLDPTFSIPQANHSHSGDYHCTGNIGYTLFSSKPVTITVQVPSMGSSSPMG
Assay [4] addresses FcγRIIb, soluble extracellular domain (UniProt P31994). Nature of the assay: SPR; FcγRIIb affinity fold relative to control v27294.
For assay [5], the target named is FcγRIIaR, soluble extracellular domain (UniProt P12318). In words: SPR; FcγRIIaR affinity fold relative to control v27294.
Assay [6] deals with FcγRIIb, soluble extracellular domain (UniProt P31994). In words: SPR; IIb-Fold/IIaR-Fold (FcγRIIb over FcγRIIaR, vs WT v16463).
Assay [7] addresses FcγRIIaR, soluble extracellular domain (UniProt P12318). In words: SPR (Biacore 4000, Protocol 2): antibody captured on immobilised HER2, soluble receptor as analyte.
Assay [8] has as its target FcγRIIb, soluble extracellular domain (UniProt P31994). The description is as above.

Chain of FcγRIIb, soluble extracellular domain (P31994 43-217): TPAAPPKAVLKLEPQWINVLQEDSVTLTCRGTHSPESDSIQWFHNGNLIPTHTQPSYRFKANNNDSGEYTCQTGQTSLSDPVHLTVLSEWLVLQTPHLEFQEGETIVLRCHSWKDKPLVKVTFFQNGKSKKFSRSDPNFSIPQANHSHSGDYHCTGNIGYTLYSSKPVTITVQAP

As to “Variant 26725 (A_D270K_strat2), one-armed trastuzumab antibody with heterodimeric IgG1 Fc”, in assay [1], the IIb Selectivity Fold wrt Control was 0.9 fold. In assay [2], the IIb-Fold amounted to 24.1 fold. In assay [3], this substance yielded an IIaR-fold of 1.9 fold. This substance also showed an IIb-Fold wrt Control in assay [4] of 0.3 fold. Besides, the IIaR-Fold wrt Control in assay [5] was 0.3 fold. For the same substance, in assay [6], the IIb Selectivity turned out to be 12.5 fold. In addition, the Kd in assay [7] is 160 nM; in assay [8] it was 60 nM.

As usually defined, the Kd is the equilibrium constant for the complex coming apart. Lower therefore signals tighter binding.
